Data as given in US20080096225.

Molecular target: microtubules (Example 3)

B1: Drosophila kinesin heavy chain fragment containing amino acids 5-351 with a C-terminal hexahistidine tag (protein)
chain: REIPAEDSIKVVCRFRPLNDSEEKAGSKFVVKFPNNVEENCISIAGKVYLFDKVFKPNASQEKVYNEAAKSIVTDVLAGYNGTIFAYGQTSSGKTHTMEGVIGDSVKQGIIPRIVNDIFNHIYAMEVNLEFHIKVSYYEIYMDKIRDLLDVSKVNLSVHEDKNRVPYVKGATERFVSSPEDVFEVIEEGKSNRHIAVTNMNEHSSRSHSVFLINVKQENLENQKKLSGKLYLVDLAGSEKVSKTGAEGTVLDEAKNINKSLSALGNVISALADGNKTHIPYRDSKLTRILQESLGGNARTTIVICCSPASFNESETKSTLDFGRRAKTVKNVVCVNEELTAEEWKRRHHHHHH
stimulation of the basal ATPase rate: 1,000-fold stimulation of the basal ATPase rate
